Reference: the supplement of paper PMC10724198
± gives the standard deviation of the averaged measurements.

Key:
Saccharomyces cerevisiae [1] = test: protein stability index of tFT-peptide fusion (C-terminal peptide) (PSI (0-1 scale)); higher = more stable (slower turnover); settings: genetic background: wild type; temperature: 30 C
Saccharomyces cerevisiae [2] = test: as above
Experimental: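 MPS profiling in S. cerevisiae of the tFT-X12 degron library: putative degron peptides plus stable controls, 12 aa, fused to the C-terminus of a sfGFP-mCherry timer. Cells are FACS-sorted into 8 mCherry/sfGFP bins and deep-sequenced. PSI runs from 0 (unstable) to 1 (stable). Backgrounds are wild type, das1Δ and doa10Δ at 30 °C, and wild type, das1Δ, cdc34-1 and cdc53-1 at 37 °C; 2-3 technical replicates each.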

[3] = genetic background: cdc34-1, temperature: 37 C
[4] = genetic background: cdc53-1, temperature: 37 C
[5] = genetic background: das1 deletion, temperature: 30 C
[6] = genetic background: das1 deletion, temperature: 37 C
[7] = genetic background: doa10 deletion, temperature: 30 C
[8] = genetic background: wild type, temperature: 30 C
[9] = genetic background: wild type, temperature: 37 C
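Note: PSI is a weighted mean of sequencing reads over stability bins, variants kept only with over 10 reads, mCherry proximal and sfGFP distal, peptide attached via GGGS linker.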

| Sequence | protein stability index (Saccharomyces cerevisiae [1]) | protein stability index (Saccharomyces cerevisiae [2]; [3]) | protein stability index (Saccharomyces cerevisiae [2]; [4]) | protein stability index (Saccharomyces cerevisiae [2]; [5]) | protein stability index (Saccharomyces cerevisiae [2]; [6]) | protein stability index (Saccharomyces cerevisiae [2]; [7]) | protein stability index (Saccharomyces cerevisiae [2]; [8]) | protein stability index (Saccharomyces cerevisiae [2]; [9]) |
| --- | --- | --- | --- | --- | --- | --- | --- | --- |
| NYVFALFYMVVA | 0.254 ± 0.0054 | 0.196 ± 0.022 | 0.311 ± 0.031 | 0.224 ± 0.033 | 0.3449 ± 0.0014 | 0.19 ± 0.0089 | 0.217 ± 0.025 | 0.345 ± 0.03 |
| PALPTPPVSPSP | 0.333 ± 0.013 | 0.613 ± 0.092 | 0.667 ± 0.11 | 0.256 ± 0.025 | 0.465 ± 0.0057 | 0.243 ± 0.014 | 0.265 ± 0.022 | 0.43648 ± 0.00011 |
| PCVPRLLPLQLS | 0.252 ± 0.03 | 0.628 ± 0.019 | 0.795 ± 0.028 | 0.6546 ± 0.005 | 0.758 ± 0.03 | 0.216 ± 0.0089 | 0.233 ± 0.0069 | 0.363 ± 0.0044 |
| PCYRPPLPALLS | 0.501 ± 0.013 | 0.613 ± 0.013 | 0.69 ± 0.0093 | 0.62 ± 0.036 | 0.705 ± 0.024 | 0.395 ± 0.024 | 0.43 ± 0.03 | 0.568 ± 0.033 |
| PDPIFGEWVYMV | 0.327 ± 0.0015 | 0.57943 ± 4.3e-05 | 0.72148 ± 0.00041 | 0.644 ± 0.0072 | 0.7555 ± 0.0066 | 0.249 ± 0.00039 | 0.26 ± 0.02 | 0.384 ± 0.0032 |
| PFAFLSLVLLLP | 0.418 ± 0.0045 | 0.51 ± 0.017 | 0.5103 ± 0.0028 | 0.418 ± 0.029 | 0.5176 ± 0.0043 | 0.383 ± 0.027 | 0.35 ± 0.023 | 0.482 ± 0.02 |
| PFFFIFVLPFVF | 0.402 ± 0.011 | 0.456 ± 0.045 | 0.51212 ± 0.00041 | 0.366 ± 0.024 | 0.524 ± 0.0093 | 0.318 ± 0.027 | 0.309 ± 0.041 | 0.465 ± 0.0074 |
| PFLLLVSPISSC | 0.433 ± 0.011 | 0.416 ± 0.037 | 0.403 ± 0.01 | 0.301 ± 0.028 | 0.4637 ± 0.0012 | 0.271 ± 0.0057 | 0.302 ± 0.028 | 0.445 ± 0.014 |
| PGFCFFLYYCMM | 0.49 ± 0.034 | 0.4815 ± 0.0025 | 0.558 ± 0.056 | 0.416 ± 0.031 | 0.562 ± 0.011 | 0.368 ± 0.0053 | 0.412 ± 0.018 | 0.5331 ± 0.00095 |
| PHGASLCVPPSP | 0.491 ± 0.0074 | 0.675 ± 0.025 | 0.739 ± 0.0082 | 0.647 ± 0.0089 | 0.7271 ± 0.0072 | 0.645 ± 0.02 | 0.651 ± 0.014 | 0.69931 ± 2.1e-06 |
| PHGLKPHCPTPS | 0.728 ± 0.02 | 0.685 ± 0.026 | 0.745 ± 0.021 | 0.654 ± 0.016 | 0.7368 ± 0.0034 | 0.674 ± 0.046 | 0.677 ± 0.01 | 0.73 ± 0.042 |
| PLRVFFLVAFCL | 0.383 ± 0.0073 | 0.451 ± 0.009 | 0.4799 ± 0.0037 | 0.372 ± 0.024 | 0.535 ± 0.015 | 0.318 ± 0.026 | 0.326 ± 0.05 | 0.471 ± 0.013 |
| PLSNLCRVLTFI | 0.4608 ± 0.0029 | 0.557 ± 0.078 | 0.639 ± 0.0012 | 0.575 ± 0.03 | 0.6394 ± 0.0024 | 0.361 ± 0.0071 | 0.369 ± 0.015 | 0.526 ± 0.0056 |
| PLSSHIPVHEAR | 0.718 ± 0.025 | 0.659 ± 0.052 | 0.744 ± 0.035 | 0.699 ± 0.017 | 0.706 ± 0.011 | 0.674 ± 0.012 | 0.645 ± 0.025 | 0.6878 ± 0.0027 |
| PPLTRVPLSISA | 0.413 ± 0.052 | 0.434 ± 0.0084 | 0.465 ± 0.016 | 0.292 ± 0.04 | 0.492 ± 0.012 | 0.267 ± 0.0075 | 0.305 ± 0.034 | 0.46 ± 0.005 |
| PPPPLATTSAPL | 0.719 ± 0.04 | 0.687 ± 0.046 | 0.74266 ± 0.0006 | 0.661 ± 0.0092 | 0.7118 ± 0.0031 | 0.668 ± 0.029 | 0.665 ± 0.015 | 0.6919 ± 0.0013 |
| PPSLFLLLKVFF | 0.3254 ± 0.0024 | 0.321 ± 0.0034 | 0.362 ± 0.012 | 0.279 ± 0.037 | 0.458 ± 0.005 | 0.268 ± 0.0069 | 0.223 ± 0.023 | 0.357 ± 0.0065 |
| PPSPPPLSASVP | 0.578 ± 0.14 | 0.661 ± 0.04 | 0.698 ± 0.025 | 0.667 ± 0.053 | 0.698 ± 0.02 | 0.677 ± 0.024 | 0.669 ± 0.015 | 0.7 ± 0.0078 |
| PRHLTPPPAPSA | 0.642 ± 0.24 | 0.704 ± 0.059 | 0.721 ± 0.024 | 0.675 ± 0.022 | 0.708 ± 0.013 | 0.66 ± 0.038 | 0.659 ± 0.022 | 0.6742 ± 0.0042 |
